Measured values: US20190048340 (CRISPR Therapeutics AG, published 2019)

Target: Cpf1 (FnCpf1, FTN_1397) wild type (Francisella novicida U112, UniProt A0Q7Q2 SEQ:1-1300)
Assay: EMSA; PAM YTN (TTA); 37 C
Settings: tags: N-terminal 6xHis (pET-16b); label: 5'-32P; repeat hairpin

Chain of Cpf1 (FnCpf1, FTN_1397) wild type (A0Q7Q2 whole entry): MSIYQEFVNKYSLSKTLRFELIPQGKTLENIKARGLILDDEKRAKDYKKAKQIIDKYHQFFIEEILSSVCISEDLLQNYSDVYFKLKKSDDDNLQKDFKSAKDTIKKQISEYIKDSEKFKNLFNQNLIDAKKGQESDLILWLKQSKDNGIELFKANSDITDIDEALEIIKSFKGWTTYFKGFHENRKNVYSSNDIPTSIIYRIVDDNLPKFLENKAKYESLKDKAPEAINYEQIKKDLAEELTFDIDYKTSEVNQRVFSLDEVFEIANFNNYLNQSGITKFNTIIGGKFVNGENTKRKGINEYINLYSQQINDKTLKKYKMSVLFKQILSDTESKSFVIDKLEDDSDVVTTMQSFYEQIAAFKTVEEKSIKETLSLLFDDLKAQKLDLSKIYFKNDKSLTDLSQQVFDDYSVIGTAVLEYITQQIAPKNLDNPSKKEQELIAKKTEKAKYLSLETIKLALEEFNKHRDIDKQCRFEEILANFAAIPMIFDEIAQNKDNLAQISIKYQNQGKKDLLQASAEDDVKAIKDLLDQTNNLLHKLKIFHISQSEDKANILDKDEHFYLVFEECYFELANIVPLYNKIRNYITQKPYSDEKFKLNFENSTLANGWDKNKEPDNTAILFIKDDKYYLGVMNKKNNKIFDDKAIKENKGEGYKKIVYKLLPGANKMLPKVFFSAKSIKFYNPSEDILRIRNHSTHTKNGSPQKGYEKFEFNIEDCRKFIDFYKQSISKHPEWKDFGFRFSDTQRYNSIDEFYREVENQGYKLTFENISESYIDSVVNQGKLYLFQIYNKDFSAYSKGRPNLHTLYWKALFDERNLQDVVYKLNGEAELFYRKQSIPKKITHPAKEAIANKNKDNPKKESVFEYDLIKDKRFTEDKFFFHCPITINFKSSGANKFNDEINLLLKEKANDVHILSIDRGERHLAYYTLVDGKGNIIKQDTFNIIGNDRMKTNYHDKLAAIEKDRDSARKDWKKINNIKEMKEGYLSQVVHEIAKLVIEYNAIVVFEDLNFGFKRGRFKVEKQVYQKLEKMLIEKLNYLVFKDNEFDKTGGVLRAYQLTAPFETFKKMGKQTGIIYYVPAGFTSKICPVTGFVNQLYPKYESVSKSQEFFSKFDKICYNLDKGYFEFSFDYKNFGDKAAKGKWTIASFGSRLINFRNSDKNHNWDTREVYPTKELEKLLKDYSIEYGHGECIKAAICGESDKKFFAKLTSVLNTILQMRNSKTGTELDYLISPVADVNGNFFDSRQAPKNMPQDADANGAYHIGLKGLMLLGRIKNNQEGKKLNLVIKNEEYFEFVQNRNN

B1: crRNA-sp5 repeat-spacer full-length (RNA 4); ref is antisense T7 transcription template ; Psp5 oligonucleotide duplex (ssRNA ; dsDNA)
RNA: GGGUCUAAGAACUUUAAAUAAUUUCUACUGUUGUAGAUAGAUUAAAAGGUAAUUCUAUCUUGUUGAG
DNA 1: AGCTGTAGCAAATATTAATCATATAGAAGAAAGCTCAGATCTCAACAAGATAGAATTACCTTTTAATCTTAAATTATTATATCCAGAAACTATTGATGGTAATTTACTTATC
DNA 2: AGCTGATAAGTAAATTACCATCAATAGTTTCTGGATATAATAATTTAAGATTAAAAGGTAATTCTATCTTGTTGAGATCTGAGCTTTCTTCTATATGATTAATATTTGCTAC
  Kd: 50 nM
